Assay results from US20240301385, “DNA MODIFYING ENZYMES AND ACTIVE FRAGMENTS AND VARIANTS THEREOF AND METHODS OF USE” (LIFEEDIT THERAPEUTICS, INC., published 2024).

T1: APG09980-L16-nAPG07433.1 cytosine base editor (synthetic)
T1 chain: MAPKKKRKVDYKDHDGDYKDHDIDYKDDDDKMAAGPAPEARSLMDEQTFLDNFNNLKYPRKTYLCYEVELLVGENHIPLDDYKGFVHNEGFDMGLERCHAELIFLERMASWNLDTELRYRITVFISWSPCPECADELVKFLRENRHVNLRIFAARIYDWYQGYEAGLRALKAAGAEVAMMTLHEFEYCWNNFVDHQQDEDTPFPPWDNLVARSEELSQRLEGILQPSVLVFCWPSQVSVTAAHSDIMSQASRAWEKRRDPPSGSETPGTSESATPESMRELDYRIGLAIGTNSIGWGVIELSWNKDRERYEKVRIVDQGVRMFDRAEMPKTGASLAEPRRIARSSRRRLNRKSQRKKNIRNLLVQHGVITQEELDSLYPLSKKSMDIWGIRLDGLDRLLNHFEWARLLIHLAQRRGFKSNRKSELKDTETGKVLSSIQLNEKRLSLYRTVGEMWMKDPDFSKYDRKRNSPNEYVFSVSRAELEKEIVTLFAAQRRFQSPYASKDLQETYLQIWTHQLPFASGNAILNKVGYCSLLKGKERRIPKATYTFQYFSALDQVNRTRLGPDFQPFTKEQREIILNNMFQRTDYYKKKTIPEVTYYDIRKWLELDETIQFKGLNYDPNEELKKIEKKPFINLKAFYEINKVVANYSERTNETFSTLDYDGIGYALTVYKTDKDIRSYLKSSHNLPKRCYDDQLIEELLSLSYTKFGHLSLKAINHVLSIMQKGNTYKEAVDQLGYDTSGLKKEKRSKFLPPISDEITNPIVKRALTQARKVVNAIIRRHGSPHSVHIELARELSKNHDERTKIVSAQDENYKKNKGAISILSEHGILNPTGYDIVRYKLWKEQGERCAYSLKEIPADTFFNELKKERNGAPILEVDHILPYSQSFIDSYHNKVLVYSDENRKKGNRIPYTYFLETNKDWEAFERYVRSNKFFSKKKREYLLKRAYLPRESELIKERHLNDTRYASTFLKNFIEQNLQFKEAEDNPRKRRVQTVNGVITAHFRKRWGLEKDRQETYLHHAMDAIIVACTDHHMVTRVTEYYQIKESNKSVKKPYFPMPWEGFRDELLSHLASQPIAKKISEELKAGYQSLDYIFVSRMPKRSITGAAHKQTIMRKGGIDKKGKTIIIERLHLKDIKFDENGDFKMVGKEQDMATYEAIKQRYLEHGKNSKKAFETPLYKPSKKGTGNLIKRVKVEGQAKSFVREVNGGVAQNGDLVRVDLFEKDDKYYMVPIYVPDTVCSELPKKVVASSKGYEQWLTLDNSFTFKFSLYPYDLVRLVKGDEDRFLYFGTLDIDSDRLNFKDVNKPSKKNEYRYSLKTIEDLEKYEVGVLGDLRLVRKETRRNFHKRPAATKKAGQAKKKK

B1: SGN000930 sgRNA ; SGN000930 target (ssRNA ; dsDNA)
RNA: GAACAACUCAAAUGGAAAUGAAUAUGUCAUAGUUCCAUGAAAGCCAAAAGUGGCUUUGAUGUUUCUAUGAUAAGGGUUUCGGCCCGUGGCGUCGGGGAUCGCCUGCCCAUUCCGAUGGGCUUCUCCCCAUUUAUU
DNA 1: GAACAACTCAAATGGAAATGAATAT
DNA 2: ATATTCATTTCCATTTGAGTTGTTC
B2: SGN000169 sgRNA ; SGN000169 target (ssRNA ; dsDNA)
RNA: CACAUCUCGAGCAAGACGUUGUCAUAGUUCCAUUAAAGCCAAAAGUGGCUUUGAUGUUUCUAUGAUAAGGGUUUCGACCCGUGGCGUCGGGGAUCGCCUGCCCAUUGAAAUGGGCUUCUCCCCAUUUAUU
DNA 1: CACATCTCGAGCAAGACGTT
DNA 2: AACGTCTTGCTCGAGATGTG

Target: T1, APG09980-L16-nAPG07433.1 cytosine base …
Assay: cell_activity; HEK293FT; PAM SEQ 152
Conditions: tags: SV40 NLS, 3xFLAG N-term; nucleoplasmin NLS C-term
In short: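 Editing read out by next-generation sequencing (MiSeq 2×250) of PCR amplicons spanning the target site, analysed for INDELs or % cytosine conversion per position (position 1 nearest PAM).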

Binder	activity
B1	25.2 % mutated reads
B2	24.8 % mutated reads
